According to patent publication US12618845B2, “Methods and compositions for protein sequencing” (Quantum-Si Incorporated, priority 2018, dated 2026):
Where two headings read alike, the source gives them in different places.

Test system: peptide substrates
Format: biochemical

B1: VPr: Vibrio proteolyticus aminopeptidase (protein)
chain: MPPITQQATVTAWLPQVDASQITGTISSLESFTNRFYTTTSGAQASDWIASEWQALSASLPNASVKQVSHSGYNQKSVVMTITGSEAPDEWIVIGGHLDSTIGSHTNEQSVAPGADDDASGIAAVTEVIRVLSENNFQPKRSIAFMAYAAEEVGLRGSQDLANQYKSEGKNVVSALQLDMTNYKGSAQDVVFITDYTDSNFTQYLTQLMDEYLPSLTYGFDTCGYACSDHASWHNAGYPAAMPFESKFNDYNPRIHTTQDTLANSDPTGSHAKKFTQLGLAYAIEMGSATGDTPTPGNQ
Substrate […]1 (SEQ ID NO: 11), 600 μM Peptide, 0.08 μM enzyme, 10 mM 5Mg(OAc)2, 0 mM MOPS pH 8, 60 mM KOAc, RT/0.5 hr
  HPLC Assay Conv: 5%
Substrate […]1 (SEQ ID NO: 11), 600 μM Peptide, 0.8 μM enzyme, 10 mM Mg(OAc)2, 50 mM MOPS pH 8, 60 mM KOAc, RT/0.5 hr
  HPLC Assay Conv: 50%
Substrate […]1 (SEQ ID NO: 11), 600 μM Peptide, 8 μM enzyme, 10 mM Mg(OAc)2, 50 mM MOPS pH 8, 60 mM KOAc, RT/0.5 hr
  HPLC Assay Conv: 100%
Substrate […]1 (SEQ ID NO: 11), 600 μM Peptide, 8 μM enzyme, 10 mM Mg(OAc)2, 50 mM MOPS pH 8, RT/0.5 hr
  HPLC Assay Conv: 100%
Substrate […]1 (SEQ ID NO: 13), 300 μM Peptide, 8 μM enzyme, 10 mM Mg(OAc)2, 50 mM MOPS pH 8, 60 mM KOAc, 37° C./2 hr
  HPLC Assay Conv: 100%
Substrate […]1 (SEQ ID NO: 13), 300 μM Peptide, 8 μM enzyme, 10 mM Mg(OAc)2, 50 mM MOPS pH 8, 60 mM KOAc, RT/0.5 hr
  HPLC Assay Conv: 70%
Substrate […]1 (SEQ ID NO: 13), 300 μM Peptide, 8 μM enzyme, 10 mM Mg(OAc)2, 50 mM MOPS pH 8, 60 mM KOAc, RT/2 hr
  HPLC Assay Conv: 100%
Substrate […]1 (SEQ ID NO: 13), 300 μM Peptide, 8 μM enzyme, 10 mM Mg(OAc)2, 50 mM MOPS pH 8, 0.2% Tween20, RT/0.5 hr
  HPLC Assay Conv: 100%
Substrate […]1 (SEQ ID NO: 13), 300 μM Peptide, 8 μM enzyme, 10 mM Mg(OAc)2, 50 mM MOPS pH 8, RT/0.5 hr
  HPLC Assay Conv: 100%
Substrate […]1 (SEQ ID NO: 13), 300 μM Peptide, 8 μM enzyme, 50/50 MOPS Mg buffer/RB1, RT/0.5 hr
  HPLC Assay Conv: 30%
Substrate […]1 (SEQ ID NO: 13), 300 μM Peptide, 8 μM enzyme, RB2 + Mg, RT/0.5 hr
  HPLC Assay Conv: 5%
Substrate […]1 (SEQ ID NO: 13), 300 μM Peptide, 8 μM enzyme, RB4, RT/0.5 hr
  HPLC Assay Conv: 100%
Substrate […]1 (SEQ ID NO: 13), 600 μM Peptide, 8 μM enzyme, 10 mM Mg(OAc)2, 50 mM MOPS pH 8, RT/0.5 hr
  HPLC Assay Conv: 100%
Substrate […]{LYSN3}NH2 (SEQ ID NO: 107), 200 μM Peptide, 4 μM enzyme, 10 mM MgCl2, 50 mM MOPS pH 8.0, 37° C./0.5 hr
  HPLC Assay Conv: 100%
Substrate […]{LYSN3}NH2 (SEQ ID NO: 107), 200 μM Peptide, 4 μM enzyme, 10 mM MgCl2, 50 mM MOPS pH 8.0, 37° C./1 hr
  HPLC Assay Conv: 100%
Substrate […]{LYSN3}NH2 (SEQ ID NO: 107), 200 μM Peptide, 8 μM enzyme, 10 mM MgCl2, 50 mM MOPS pH 5.0, RT/0.5 hr
  HPLC Assay Conv: 100%
Substrate […]{LYSN3}NH2 (SEQ ID NO: 107), 200 μM Peptide, 8 μM enzyme, 10 mM MgCl2, 50 mM MOPS pH 5.0, RT/1 hr
  HPLC Assay Conv: 100%
Substrate […]{LYSN3}NH2 (SEQ ID NO: 107), 300 μM Peptide, 4 μM enzyme, 10 mM MgCl2, 50 mM MOPS pH 8.0, 37° C./0.5 hr
  HPLC Assay Conv: 100%
Substrate […]{LYSN3}NH2 (SEQ ID NO: 107), 400 μM Peptide, 8 μM enzyme, 50 mM HEPES pH 8.0, 300 mM NaCl, 1 mM DTT, 5% Glycerol, 32 mM PCA, 37° C./1 hr
  HPLC Assay Conv: 100%
Substrate […]{LYSN3}NH2 (SEQ ID NO: 107), 600 μM Peptide, 0.8 μM enzyme, 10 mM Mg(OAc)2, 50 mM MOPS pH 5.5, RT/0.5 hr
  HPLC Assay Conv: 100%
Substrate […]{LYSN3}NH2 (SEQ ID NO: 107), 600 μM Peptide, 0.8 μM enzyme, 10 mM Mg(OAc)2, 50 mM MOPS pH 6.5, RT/0.5 hr
  HPLC Assay Conv: 100%
Substrate […]{LYSN3}NH2 (SEQ ID NO: 107), 600 μM Peptide, 0.8 μM enzyme, 10 mM Mg(OAc)2, 50 mM MOPS pH 7.5, RT/0.5 hr
  HPLC Assay Conv: 100%
Substrate […]{LYSN3}NH2 (SEQ ID NO: 107), 600 μM Peptide, 0.8 μM enzyme, 10 mM Mg(OAc)2, 50 mM MOPS pH 8.5, RT/0.5 hr
  HPLC Assay Conv: 100%
Substrate […]{LYSN3}NH2 (SEQ ID NO: 107), 1200 μM Peptide, 800 pM enzyme, 10 mM Mg(OAc)2, 50 mM MOPS pH 7.5, RT/0.5 hr
  HPLC Assay Conv: 2.70%
Substrate […]{LYSN3}NH2 (SEQ ID NO: 107), 1200 μM Peptide, 800 pM enzyme, 10 mM Mg(OAc)2, 50 mM MOPS pH 8.5, RT/0.5 hr
  HPLC Assay Conv: 6.80%
Substrate […]{LYSN3}NH2 (SEQ ID NO: 107), 1200 μM Peptide, 0.008 μM enzyme, 10 mM Mg(OAc)2, 50 mM MOPS pH 7.5, RT/0.5 hr
  HPLC Assay Conv: 100%
Substrate […]{LYSN3}NH2 (SEQ ID NO: 107), 1200 μM Peptide, 0.008 μM enzyme, 10 mM Mg(OAc)2, 50 mM MOPS pH 8.5, RT/0.5 hr
  HPLC Assay Conv: 100%
Substrate […]{LYSN3}NH2 (SEQ ID NO: 107), 1200 μM Peptide, 0.08 μM enzyme, 10 mM Mg(OAc)2, 50 mM MOPS pH 5.5, RT/0.5 hr
  HPLC Assay Conv: 50%
Substrate […]{LYSN3}NH2 (SEQ ID NO: 107), 1200 μM Peptide, 0.08 μM enzyme, 10 mM Mg(OAc)2, 50 mM MOPS pH 6.5, RT/0.5 hr
  HPLC Assay Conv: 100%
Substrate […]{LYSN3}NH2 (SEQ ID NO: 107), 1200 μM Peptide, 0.08 μM enzyme, 10 mM Mg(OAc)2, 50 mM MOPS pH 7.5, RT/0.5 hr
  HPLC Assay Conv: 100%
Substrate […]{LYSN3}NH2 (SEQ ID NO: 109), 300 μM Peptide, 4 μM enzyme, 10 mM MgCl2, 50 mM MOPS pH 8.0, 37° C./0.5 hr
  HPLC Assay Conv: 100%
Substrate […]{LYSN3}NH2 (SEQ ID NO: X), 1200 μM Peptide, 0.08 μM enzyme, 10 mM Mg(OAc)2, 50 mM MOPS pH 8.5, RT/0.5 hr
  HPLC Assay Conv: 100%
